Source: PMC10770758, “Protocatechuate hydroxylase is a novel group A flavoprotein monooxygenase with a unique substrate recognition mechanism” (The Journal of Biological Chemistry, 2023)

Assays:
O=C(O)c1ccc(O)c(O)c1 = assay: purified protein; format: biochemical, Xylophilus ampelinus; conditions: apparent, 0.25 mM NADPH, 20 mM Tris-HCl pH 7.9, 25 °C
O=C(O)c1ccc(O)cc1 = assay: purified protein; format: biochemical, Xylophilus ampelinus; conditions: apparent, 0.25 mM NADPH, 20 mM Tris-HCl pH 7.9, 25 °C

Substance	Km (O=C(O)c1ccc(O)c(O)c1)	Km (O=C(O)c1ccc(O)cc1)
XaPobA (Xylophilus ampelinus; C347T)	3.2 ± 1.0 × 10^−1 mM	9.1 ± 3.4 × 10^−1 mM
XaPobA (Xylophilus ampelinus; M210A)	9.6 ± 0.3 × 10^−1 mM	
XaPobA (Xylophilus ampelinus; W201A)	6.5 ± 2.7 × 10^−1 mM	
XaPobA (Xylophilus ampelinus; W201Y)	5.0 ± 1.1 × 10^−1 mM	7.2 ± 2.2 × 10^−2 mM
